# Reference: paper PMC9482650, “Quantitative fragmentomics allow affinity mapping of interactomes” (Nature Communications, 2022)
# T1: HTRA4, P83105
# T1 sequence (P83105 378-476, limits assumed, looked up): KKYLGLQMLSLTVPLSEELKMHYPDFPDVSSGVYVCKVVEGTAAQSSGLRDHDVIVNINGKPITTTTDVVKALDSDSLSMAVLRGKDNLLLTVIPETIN
# T2: LNX2_2, Q8N448
# T2 sequence (Q8N448 334-432, limits assumed, looked up): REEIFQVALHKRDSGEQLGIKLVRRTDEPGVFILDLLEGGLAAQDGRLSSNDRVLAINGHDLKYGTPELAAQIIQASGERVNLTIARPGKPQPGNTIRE
# T3: PTPN13_1, Q12923
# T3 sequence (Q12923 1088-1188, limits assumed, looked up): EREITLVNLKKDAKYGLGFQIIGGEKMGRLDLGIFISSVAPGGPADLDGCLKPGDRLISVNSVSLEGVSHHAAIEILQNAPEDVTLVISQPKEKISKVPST
# T4: APBA3_1, O96018
# T4 sequence (O96018 389-490, limits assumed, looked up): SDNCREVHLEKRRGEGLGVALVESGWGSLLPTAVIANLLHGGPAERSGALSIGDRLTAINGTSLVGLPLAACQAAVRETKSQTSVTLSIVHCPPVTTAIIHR
# T5: APBA2_2, Q99767
# T5 sequence (Q99767 654-744, limits assumed, looked up): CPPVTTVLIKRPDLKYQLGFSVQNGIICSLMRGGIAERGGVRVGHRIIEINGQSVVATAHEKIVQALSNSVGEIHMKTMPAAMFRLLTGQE
# T6: MPDZ_12, O75970
# T6 sequence (O75970 1857-1958, limits assumed, looked up): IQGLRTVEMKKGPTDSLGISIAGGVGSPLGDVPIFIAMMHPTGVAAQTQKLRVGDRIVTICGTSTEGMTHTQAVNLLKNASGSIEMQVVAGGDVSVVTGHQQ
# T7: RAPGEF6, Q8TEU7
# T7 sequence (Q8TEU7 525-625, limits assumed, looked up): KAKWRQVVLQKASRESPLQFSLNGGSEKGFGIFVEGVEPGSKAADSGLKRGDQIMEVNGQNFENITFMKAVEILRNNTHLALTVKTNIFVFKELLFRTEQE
# T8: GRIP1_5, Q9Y3R0
# T8 sequence (Q9Y3R0 568-668, limits assumed, looked up): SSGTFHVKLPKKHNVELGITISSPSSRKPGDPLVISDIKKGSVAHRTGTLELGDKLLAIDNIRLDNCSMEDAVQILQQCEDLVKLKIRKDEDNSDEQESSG
# T9: PDZD7_3, Q9H5P4
# T9 sequence (Q9H5P4 857-944, limits assumed, looked up): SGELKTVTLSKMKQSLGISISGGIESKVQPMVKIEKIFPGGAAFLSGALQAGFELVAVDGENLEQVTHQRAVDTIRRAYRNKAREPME
# T10: NHERF3_4, Q5T2W1
# T10 sequence (Q5T2W1 373-468, limits assumed, looked up): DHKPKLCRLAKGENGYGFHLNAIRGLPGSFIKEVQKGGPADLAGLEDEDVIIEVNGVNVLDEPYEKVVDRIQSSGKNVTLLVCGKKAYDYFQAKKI
# T11: SHANK1, Q9Y566
# T11 sequence (Q9Y566 658-767, limits assumed, looked up): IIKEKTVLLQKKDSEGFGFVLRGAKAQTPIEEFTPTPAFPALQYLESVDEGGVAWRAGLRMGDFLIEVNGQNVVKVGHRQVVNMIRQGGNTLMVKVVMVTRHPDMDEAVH
# B1: SDK2, Q58EX2 (peptide)
# chain: APIAGFSSFV
# Biological target: MAGI2_5, Q86UL8
# Assay: holdup assay
# Parameters: key: below the threshold = too weak to quantify, mostly under pKd 3.1 to 4
# Conditions: plain residues with an end cap or a label only (N-terminal biotin on a linker: ado-ado)
# Sequence of MAGI2_5, Q86UL8 (Q86UL8 915-1017): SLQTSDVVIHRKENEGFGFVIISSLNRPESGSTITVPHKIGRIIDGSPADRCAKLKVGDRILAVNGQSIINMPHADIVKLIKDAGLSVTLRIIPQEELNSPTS
row,Binder,pKd
1,B1,4.44

# Biological target: T1, HTRA4, P83105
# Assay: holdup assay
# Parameters: key: below the threshold = too weak to quantify, mostly under pKd 3.1 to 4
# Conditions: plain residues with an end cap or a label only (N-terminal biotin on a linker: ado-ado)
row,Binder,pKd
1,B1,below the threshold

# Biological target: Inadl_9, Q8NI35
# Assay: holdup assay
# Parameters: key: below the threshold = too weak to quantify, mostly under pKd 3.1 to 4
# Conditions: plain residues with an end cap or a label only (N-terminal biotin on a linker: ado-ado)
# Sequence of Inadl_9, Q8NI35 (Q8NI35 1530-1615): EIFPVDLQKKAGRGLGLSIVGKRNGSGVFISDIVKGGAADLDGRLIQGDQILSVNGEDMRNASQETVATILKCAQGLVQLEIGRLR
row,Binder,pKd
1,B1,3.96

# Biological target: T2, LNX2_2, Q8N448
# Assay: holdup assay
# Parameters: key: below the threshold = too weak to quantify, mostly under pKd 3.1 to 4
# Conditions: plain residues with an end cap or a label only (N-terminal biotin on a linker: ado-ado)
row,Binder,pKd
1,B1,4.13

# Biological target: PDZRN4_1, Q6ZMN7
# Assay: holdup assay
# Parameters: key: below the threshold = too weak to quantify, mostly under pKd 3.1 to 4
# Conditions: plain residues with an end cap or a label only (N-terminal biotin on a linker: ado-ado)
# Sequence of PDZRN4_1, Q6ZMN7 (Q6ZMN7 213-318): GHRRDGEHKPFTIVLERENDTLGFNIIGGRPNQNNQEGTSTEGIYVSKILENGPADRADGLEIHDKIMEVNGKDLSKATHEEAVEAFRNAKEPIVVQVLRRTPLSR
row,Binder,pKd
1,B1,3.79

# Biological target: Inadl_1, Q8NI35
# Assay: holdup assay
# Parameters: key: below the threshold = too weak to quantify, mostly under pKd 3.1 to 4
# Conditions: plain residues with an end cap or a label only (N-terminal biotin on a linker: ado-ado)
# Sequence of Inadl_1, Q8NI35 (Q8NI35 113-229): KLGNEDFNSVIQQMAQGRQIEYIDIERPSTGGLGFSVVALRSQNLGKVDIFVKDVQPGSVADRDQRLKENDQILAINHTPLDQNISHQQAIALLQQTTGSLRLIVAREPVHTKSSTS
row,Binder,pKd
1,B1,below the threshold

# Biological target: T3, PTPN13_1, Q12923
# Assay: holdup assay
# Parameters: key: below the threshold = too weak to quantify, mostly under pKd 3.1 to 4
# Conditions: plain residues with an end cap or a label only (N-terminal biotin on a linker: ado-ado)
row,Binder,pKd
1,B1,below the threshold

# Biological target: LIMK2, P53671
# Assay: holdup assay
# Parameters: key: below the threshold = too weak to quantify, mostly under pKd 3.1 to 4
# Conditions: plain residues with an end cap or a label only (N-terminal biotin on a linker: ado-ado)
# Sequence of LIMK2, P53671 (P53671 143-248): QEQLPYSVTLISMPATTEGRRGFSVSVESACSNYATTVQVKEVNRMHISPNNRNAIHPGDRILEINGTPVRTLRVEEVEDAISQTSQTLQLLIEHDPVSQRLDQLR
row,Binder,pKd
1,B1,below the threshold

# Biological target: LNX1_2, Q8TBB1
# Assay: holdup assay
# Parameters: key: below the threshold = too weak to quantify, mostly under pKd 3.1 to 4
# Conditions: plain residues with an end cap or a label only (N-terminal biotin on a linker: ado-ado)
# Sequence of LNX1_2, Q8TBB1 (Q8TBB1 371-470): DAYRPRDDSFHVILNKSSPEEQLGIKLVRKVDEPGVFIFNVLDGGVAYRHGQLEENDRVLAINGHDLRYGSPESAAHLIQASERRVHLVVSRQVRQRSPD
row,Binder,pKd
1,B1,below the threshold

# Biological target: PTPN3, P26045
# Assay: holdup assay
# Parameters: key: below the threshold = too weak to quantify, mostly under pKd 3.1 to 4
# Conditions: plain residues with an end cap or a label only (N-terminal biotin on a linker: ado-ado)
# Sequence of PTPN3, P26045 (P26045 505-587): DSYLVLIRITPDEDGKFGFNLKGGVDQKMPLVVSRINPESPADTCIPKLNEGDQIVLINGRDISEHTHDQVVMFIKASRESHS
row,Binder,pKd
1,B1,4.39

# Biological target: DLG4_2, P78352
# Assay: holdup assay
# Parameters: key: below the threshold = too weak to quantify, mostly under pKd 3.1 to 4
# Conditions: plain residues with an end cap or a label only (N-terminal biotin on a linker: ado-ado)
# Sequence of DLG4_2, P78352 (P78352 155-259): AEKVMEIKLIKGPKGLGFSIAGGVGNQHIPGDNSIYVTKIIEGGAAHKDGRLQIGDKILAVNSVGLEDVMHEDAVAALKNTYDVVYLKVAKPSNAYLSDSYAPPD
row,Binder,pKd
1,B1,4.49

# Biological target: T4, APBA3_1, O96018
# Assay: holdup assay
# Parameters: key: below the threshold = too weak to quantify, mostly under pKd 3.1 to 4
# Conditions: plain residues with an end cap or a label only (N-terminal biotin on a linker: ado-ado)
row,Binder,pKd
1,B1,below the threshold

# Biological target: T5, APBA2_2, Q99767
# Assay: holdup assay
# Parameters: key: below the threshold = too weak to quantify, mostly under pKd 3.1 to 4
# Conditions: plain residues with an end cap or a label only (N-terminal biotin on a linker: ado-ado)
row,Binder,pKd
1,B1,below the threshold

# Biological target: T6, MPDZ_12, O75970
# Assay: holdup assay
# Parameters: key: below the threshold = too weak to quantify, mostly under pKd 3.1 to 4
# Conditions: plain residues with an end cap or a label only (N-terminal biotin on a linker: ado-ado)
row,Binder,pKd
1,B1,4.37

# Biological target: T7, RAPGEF6, Q8TEU7
# Assay: holdup assay
# Parameters: key: below the threshold = too weak to quantify, mostly under pKd 3.1 to 4
# Conditions: plain residues with an end cap or a label only (N-terminal biotin on a linker: ado-ado)
row,Binder,pKd
1,B1,below the threshold

# Biological target: DLG1_1, Q12959
# Assay: holdup assay
# Parameters: key: below the threshold = too weak to quantify, mostly under pKd 3.1 to 4
# Conditions: plain residues with an end cap or a label only (N-terminal biotin on a linker: ado-ado)
row,Binder,pKd
1,B1,4.21

# Biological target: MAGI2_6, Q86UL8
# Assay: holdup assay
# Parameters: key: below the threshold = too weak to quantify, mostly under pKd 3.1 to 4
# Conditions: plain residues with an end cap or a label only (N-terminal biotin on a linker: ado-ado)
# Sequence of MAGI2_6, Q86UL8 (Q86UL8 1141-1229): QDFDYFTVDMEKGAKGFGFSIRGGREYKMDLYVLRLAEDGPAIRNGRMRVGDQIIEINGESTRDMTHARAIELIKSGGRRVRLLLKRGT
row,Binder,pKd
1,B1,4.13

# Biological target: T8, GRIP1_5, Q9Y3R0
# Assay: holdup assay
# Parameters: key: below the threshold = too weak to quantify, mostly under pKd 3.1 to 4
# Conditions: plain residues with an end cap or a label only (N-terminal biotin on a linker: ado-ado)
row,Binder,pKd
1,B1,below the threshold

# Biological target: LNX1_1, Q8TBB1
# Assay: holdup assay
# Parameters: key: below the threshold = too weak to quantify, mostly under pKd 3.1 to 4
# Conditions: plain residues with an end cap or a label only (N-terminal biotin on a linker: ado-ado)
# Sequence of LNX1_1, Q8TBB1 (Q8TBB1 261-371): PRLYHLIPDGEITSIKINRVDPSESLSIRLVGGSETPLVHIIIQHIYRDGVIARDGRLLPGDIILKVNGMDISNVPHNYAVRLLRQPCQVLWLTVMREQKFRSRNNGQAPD
row,Binder,pKd
1,B1,5.16

# Biological target: DLG2_2, Q15700
# Assay: holdup assay
# Parameters: key: below the threshold = too weak to quantify, mostly under pKd 3.1 to 4
# Conditions: plain residues with an end cap or a label only (N-terminal biotin on a linker: ado-ado)
# Sequence of DLG2_2, Q15700 (Q15700 189-283): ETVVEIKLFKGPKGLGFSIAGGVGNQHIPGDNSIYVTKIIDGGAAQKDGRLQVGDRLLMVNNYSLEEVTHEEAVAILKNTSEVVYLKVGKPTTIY
row,Binder,pKd
1,B1,3.86

# Biological target: T9, PDZD7_3, Q9H5P4
# Assay: holdup assay
# Parameters: key: below the threshold = too weak to quantify, mostly under pKd 3.1 to 4
# Conditions: plain residues with an end cap or a label only (N-terminal biotin on a linker: ado-ado)
row,Binder,pKd
1,B1,4.63

# Biological target: T10, NHERF3_4, Q5T2W1
# Assay: holdup assay
# Parameters: key: below the threshold = too weak to quantify, mostly under pKd 3.1 to 4
# Conditions: plain residues with an end cap or a label only (N-terminal biotin on a linker: ado-ado)
row,Binder,pKd
1,B1,below the threshold

# Biological target: AHNAK1, Q09666
# Assay: holdup assay
# Parameters: key: below the threshold = too weak to quantify, mostly under pKd 3.1 to 4
# Conditions: plain residues with an end cap or a label only (N-terminal biotin on a linker: ado-ado)
# Sequence of AHNAK1, Q09666 (Q09666 4-100): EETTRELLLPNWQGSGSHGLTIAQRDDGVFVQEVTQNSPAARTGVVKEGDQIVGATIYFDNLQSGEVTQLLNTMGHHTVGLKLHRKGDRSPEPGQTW
row,Binder,pKd
1,B1,below the threshold

# Biological target: FRMPD4, Q14CM0
# Assay: holdup assay
# Parameters: key: below the threshold = too weak to quantify, mostly under pKd 3.1 to 4
# Conditions: plain residues with an end cap or a label only (N-terminal biotin on a linker: ado-ado)
# Sequence of FRMPD4, Q14CM0 (Q14CM0 67-160): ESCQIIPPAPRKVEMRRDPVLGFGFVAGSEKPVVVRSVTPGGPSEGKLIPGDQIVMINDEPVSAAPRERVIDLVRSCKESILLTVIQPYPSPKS
row,Binder,pKd
1,B1,below the threshold

# Biological target: T11, SHANK1, Q9Y566
# Assay: holdup assay
# Parameters: key: below the threshold = too weak to quantify, mostly under pKd 3.1 to 4
# Conditions: plain residues with an end cap or a label only (N-terminal biotin on a linker: ado-ado)
row,Binder,pKd
1,B1,below the threshold

# Biological target: Inadl_3, Q8NI35
# Assay: holdup assay
# Parameters: key: below the threshold = too weak to quantify, mostly under pKd 3.1 to 4
# Conditions: plain residues with an end cap or a label only (N-terminal biotin on a linker: ado-ado)
# Sequence of Inadl_3, Q8NI35 (Q8NI35 359-469): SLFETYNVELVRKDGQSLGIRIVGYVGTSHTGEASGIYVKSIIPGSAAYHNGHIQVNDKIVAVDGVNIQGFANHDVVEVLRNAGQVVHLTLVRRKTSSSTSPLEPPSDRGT
row,Binder,pKd
1,B1,3.86

# Biological target: DLG4_3, P78352
# Assay: holdup assay
# Parameters: key: below the threshold = too weak to quantify, mostly under pKd 3.1 to 4
# Conditions: plain residues with an end cap or a label only (N-terminal biotin on a linker: ado-ado)
# Sequence of DLG4_3, P78352 (P78352 306-403): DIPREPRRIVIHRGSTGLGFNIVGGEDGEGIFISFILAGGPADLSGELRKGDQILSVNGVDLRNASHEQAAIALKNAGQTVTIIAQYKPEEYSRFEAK
row,Binder,pKd
1,B1,below the threshold
